The record followed here is patent publication US20210087291A1 (Hoffmann-La Roche, published 2021).

Assay [1] addresses T1, murine FolR1 ECD-AcTev-Fcknob-Avitag + Fc hole, biotinylated monomeric Fc fusion (murine, UniProt P0DOX5 223-449 = IgG part).
T1 construct: also called muFolR1; murine FolR1-Fc
Description: SPR, IgG single injection.

Assay [2] has as its target human FolR2 on transiently transfected HEK cells (human, UniProt P14207 17-230). Description: flow cytometry on HEK cells transiently transfected with human FolR2, anti-human secondary antibody; concentration not given. Background: In flow cytometry, cells or beads pass a laser one at a time.
The target in assay [3] is T1, murine FolR1 ECD-AcTev-Fcknob-Avitag + …. Description: SPR ProteOn, Fab analyte.
Description: Immobilization of antigens (ligand): Recombinant antigens were diluted with PBST (10 mM phosphate, 150 mM sodium chloride pH 7.4, 0.005% Tween 20) to 10 μg/ml, then injected at 30 μl/minute in vertical orientation. Injection of analytes: For ‘one-shot kinetics’ measurements, injection direction was changed to horizontal orientation, two-fold dilution series of purified Fab (varying concentration ranges) were injected simultaneously along separate channels 1-5, with association times of 150 or 200 s, and dissociation times of 200 or 600 s, respectively. Buffer (PBST) was injected along the sixth channel to provide an “in-line” blank for referencing. Association rate constants (kₒₙ) and dissociation rate constants (koff) were calculated using a simple one-to-one Langmuir binding model in ProteOn Manager v3.1 software by simultaneously fitting the association and dissociation sensorgrams. The equilibrium dissociation constant (KD) was calculated as the ratio koff/kₒₙ.
Assay [4] deals with T2, human FolR1 ECD-AcTev-Fcknob-Avi tag + Fc hole, biotinylated monomeric Fc fusion (human, UniProt P0DOX5 223-449 = IgG part).
T2 construct: also called huFolR1; huFolR1-Fc
Description: SPR ProteOn, Fab analyte.
Description: (§1) Immobilization of antigens (ligand): Recombinant antigens were diluted with PBST (10 mM phosphate, 150 mM sodium chloride pH 7.4, 0.005% Tween 20) to 10 μg/ml, then injected at 30 μl/minute in vertical orientation.
(§2) Injection of analytes: For ‘one-shot kinetics’ measurements, injection direction was changed to horizontal orientation, two-fold dilution series of purified Fab (varying concentration ranges) were injected simultaneously along separate channels 1-5, with association times of 200 s, and dissociation times of 600 s. Buffer (PBST) was injected along the sixth channel to provide an “in-line” blank for referencing. Association rate constants (kₒₙ) and dissociation rate constants (koff) were calculated using a simple one-to-one Langmuir binding model in ProteOn Manager v3.1 software by simultaneously fitting the association and dissociation sensorgrams. The equilibrium dissociation constant (KD) was calculated as the ratio koff/kₒₙ.

Assay [5] concerns the target T3, human FolR2 ECD-AcTev-Fcknob-Avi tag + Fc hole, biotinylated monomeric Fc fusion (human, UniProt P0DOX5 223-449 = IgG part).
T3 construct: also called huFolR2; FolR2-Fc
Description: SPR ProteOn, Fab analyte.
Description: as §1, §2

The target in assay [6] is T4, human FolR3 ECD-AcTev-Fcknob-Avi tag + Fc hole, biotinylated monomeric Fc fusion (human, UniProt P0DOX5 223-449 = IgG part).
T4 construct: also called huFolR3; FolR3-Fc
Description: SPR ProteOn, Fab analyte.
Description: as §1, §2

The target in assay [7] is T1, murine FolR1 ECD-AcTev-Fcknob-Avitag + …. Description: SPR ProteOn, Fab analyte. The source holds these as a separate data set.
Description: as §1, §2
The target in assay [8] is T5, cynomolgus FolR1 ECD-AcTev-Fcknob-Avi tag + Fc hole, biotinylated monomeric Fc fusion (cynomolgus, UniProt P0DOX5 223-449 = IgG part).
T5 construct: also called cyFolR1; cyno FolR1-Fc
Description: SPR ProteOn, Fab analyte.
Description: as §1, §2

Assay [9] addresses T6, human TIM-3 on cells (human, UniProt Q8TDQ0 22-301). Description: cell-based or functional assay.
In assay [10] the target is T6, human TIM-3 on cells. Description: cell-based or functional assay. The source holds these as a separate data set.

human FolR2 on transiently transfected HEK cells, sequence (P14207 17-230 limits assumed): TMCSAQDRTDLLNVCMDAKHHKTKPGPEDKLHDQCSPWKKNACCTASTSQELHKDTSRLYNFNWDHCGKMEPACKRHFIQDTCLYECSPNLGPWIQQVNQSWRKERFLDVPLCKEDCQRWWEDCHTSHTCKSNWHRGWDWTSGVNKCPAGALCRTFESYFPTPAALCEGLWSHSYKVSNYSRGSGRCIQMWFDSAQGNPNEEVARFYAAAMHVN

B1: 5D9 IgG (antibody, V domains shown)
VH: QVQLVQSGAEVKKPGASVKVSCKASGYTFTSYYMHWVRQAPGQGLEWMGIINPSGGSTSYAQKFQGRVTMTRDTSTSTVYMELSSLRSEDTAVYYCARSYIDMDYWGQGTLVTVSS
VL: EIVLTQSPGTLSLSPGERATLSCRASQSVSSSYLAWYQQKPGQAPRLLIYGASSRATGIPDRFSGSGSGTDFTLTISRLEPEDFAVYYCQQDNWSPTFGQGTKVEIK
notes: human IgG1
Regarding B1, the binding result is listed as “no binding (tested: 500 nM)” in assay [1] and “binds” in [2].

B2: 5D9 Fab (Fab, V domains shown)
VH: QVQLVQSGAEVKKPGASVKVSCKASGYTFTSYYMHWVRQAPGQGLEWMGIINPSGGSTSYAQKFQGRVTMTRDTSTSTVYMELSSLRSEDTAVYYCARSYIDMDYWGQGTLVTVSS
VL: EIVLTQSPGTLSLSPGERATLSCRASQSVSSSYLAWYQQKPGQAPRLLIYGASSRATGIPDRFSGSGSGTDFTLTISRLEPEDFAVYYCQQDNWSPTFGQGTKVEIK
B2: the binding result in assay [3] is listed as “no binding”.

B3: 6B6 Fab (Fab, V domains shown)
VH: QVQLVQSGAEVKKPGASVKVSCKASGYTFTSYYMHWVRQAPGQGLEWMGIINPSGGSTSYAQKFQGRVTMTRDTSTSTVYMELSSLRSEDTAVYYCARSYVDMDYWGQGTLVTVSS
VL: EIVLTQSPGTLSLSPGERATLSCRASQSVSSSYLAWYQQKPGQAPRLLIYGASSRATGIPDRFSGSGSGTDFTLTISRLEPEDFAVYYCQQDIWSPTFGQGTKVEIK
For B3, the binding result in assay [3] is given as “no binding”.

B4: 15B6 Fab (Fab, V domains shown)
VH: QVQLVQSGAEVKKPGASVKVSCKASGYTFTSYYMHWVRQAPGQGLEWMGIINPSGGSTSYAQKFQGRVTMTRDTSTSTVYMELSSLRSEDTAVYYCARNYYIGIVPFDYWGQGTLVTVSS
VL: QAVVTQEPSLTVSPGGTVTLTCGSSTGAVTTSNYANWVQEKPGQAFRGLIGGTNKRAPGTPARFSGSLLGGKAALTLSGAQPEDEAEYYCALWYSNLWVFGGGTKLTVL
For the molecule B4, the Kd (as a rule, the equilibrium constant for the complex coming apart) was 19.1 nM in assay [4] and 13.9 nM in assay [8]. Moreover, the binding result in [5], in assay [6] and in assay [7] was “no binding” in each case.

B5: 21A5 Fab (Fab, V domains shown)
VH: not shown
VL: QAVVTQEPSLTVSPGGTVTLTCGSSTGAVTTSNYANWVQEKPGQAFRGLIGGTNKRAPGTPARFSGSLLGGKAALTLSGAQPEDEAEYYCALWYSNLWVFGGGTKLTVL
B5: the binding result in [5] and in assay [7] was “no binding” in each case.

B6: 21G8 Fab (Fab, V domains shown)
VH: not shown
VL: QAVVTQEPSLTVSPGGTVTLTCGSSTGAVTTSNYANWVQEKPGQAFRGLIGGTNKRAPGTPARFSGSLLGGKAALTLSGAQPEDEAEYYCALWYSNLWVFGGGTKLTVL
In the case of B6, the binding result in assay [7] is given as “no binding”.

B7: 16D5 Fab (Fab, V domains shown)
VH: not shown
VL: QAVVTQEPSLTVSPGGTVTLTCGSSTGAVTTSNYANWVQEKPGQAFRGLIGGTNKRAPGTPARFSGSLLGGKAALTLSGAQPEDEAEYYCALWYSNLWVFGGGTKLTVL
Turning to B7, the binding result in [5], in [6] and in [7] was “no binding” in each case.

B8: 16F12 Fab (Fab, V domains shown)
VH: QVQLVQSGAEVKKPGASVKVSCKASGYTFTSYYMHWVRQAPGQGLEWMGIINPSGGSTSYAQKFQGRVTMTRDTSTSTVYMELSSLRSEDTAVYYCARNFTVLRVPFDYWGQGTLVTVSS
VL: QAVVTQEPSLTVSPGGTVTLTCGSSTGAVTTSNYANWVQEKPGQAFRGLIGGTNKRAPGTPARFSGSLLGGKAALTLSGAQPEDEAEYYCALWYSNLWVFGGGTKLTVL
As for B8, the figures for the equilibrium dissociation constant (Kd) in assay [4] and in [8] were 68 nM and 90.9 nM, respectively. Besides, the binding result in assay [5], in assay [6] and in assay [7] was “no binding” throughout.

B9: Tim3_0022 Fab-PE24 construct (Fab, V domains shown)
VH: EVQLQESGPSLVKPSQTLSLTCSVTGDSIASAYWNWIRKFPGNKLEYMGYINYSGSTYYNPSLKSRISITRDTSQNQYYLQLNSVTTEDTATYYCVTGDYFDYWGRGTTLTVSS
VL: DIQMTQSPSSLSAYLGGKVTITCKARQDVRKNIGWYQHKPGKGPRLLIWYTSTLQSGIPSRFSGSGSGRDYSFNINNLEPEDIATYYCLQYDNLPFTFGTGTKLEIR
Regarding B9, in the assay with human TIM-3 on cells [9], the “IC50 cytotoxicity, CMK” value was determined as 255 nM; the “IC50 cytotoxicity, Karpas-299” value was 10 nM; the “IC50 cytotoxicity, MOLM-13” value was 579 nM; the “IC50 cytotoxicity, TF-1” value amounted to 299 nM. For the same molecule, in the assay with human TIM-3 on cells [10], the “IC50 cytotoxicity, primary AML CD34+ PB0135” value was above 691 nM and the “IC50 cytotoxicity, primary AML CD34+ PB0136” value is above 691 nM.

B10: 11F8 IgG (antibody, V domains shown)
VH: QVQLVQSGAEVKKPGSSVKVSCKASGGTFSSYAISWVRQAPGQGLEWMGGIIPIFGTANYAQKFQGRVTITADKSTSTAYMELSSLRSEDTAVYYCARAVFYRAWYSFDYWGQGTTVTVSS
VL: DIQMTQSPSTLSASVGDRVTITCRASQSISSWLAWYQQKPGKAPKLLIYDASSLESGVPSRFSGSGSGTEFTLTISSLQPDDFATYYCQQYTSPPPTFGQGTKVEIK
notes: human IgG1
For the molecule B10, the binding result in assay [2] was “binds”.

B11: 11F8 Fab (Fab, V domains shown)
VH: QVQLVQSGAEVKKPGSSVKVSCKASGGTFSSYAISWVRQAPGQGLEWMGGIIPIFGTANYAQKFQGRVTITADKSTSTAYMELSSLRSEDTAVYYCARAVFYRAWYSFDYWGQGTTVTVSS
VL: DIQMTQSPSTLSASVGDRVTITCRASQSISSWLAWYQQKPGKAPKLLIYDASSLESGVPSRFSGSGSGTEFTLTISSLQPDDFATYYCQQYTSPPPTFGQGTKVEIK
Take B11: the Kd in assay [3] was 1200 nM.

B12: Tim3_0016 Fab-PE24 construct (Fab, V domains shown)
VH: QVTLKESGPGILQPSQTLRLTCSFSGFSLSTSGMSVGWIRQPSGKGLEWLAHIWLNDDVFFNPALKSRLTISKDTSNNQVFLQIASVVTADTATYYCVRANGYLYALDYWGQGTSVTVSS
VL: QIVLTQSPAIMSASPGQKVTITCSASSSVNYTQWYQQKLGSSPKLWIYDAFKLAPGVPARFSGSGTGTSYSLTISSMEAEDAASYFCHQWSSYPWTFGGGTKLEIK
With B12, in the assay with human TIM-3 on cells [9], the “IC50 cytotoxicity, CMK” value is 225 nM; the “IC50 cytotoxicity, Karpas-299” value was 4 nM; the “IC50 cytotoxicity, MOLM-13” value amounted to 459 nM; the “IC50 cytotoxicity, TF-1” value was 534 nM. For the same molecule, in the assay with human TIM-3 on cells [10], the “IC50 cytotoxicity, primary AML CD34+ PB0135” value was above 691 nM and the “IC50 cytotoxicity, primary AML CD34+ PB0136” value was above 691 nM.
